# Test results as given in US20120201828A1 (Sanofi, published 2012).
# Molecular target: T1, EphA2 receptor on tumor cells (human, UniProt P29317 24-976)
# Assay: cell-based or functional assay
# T1 sequence (P29317 24-976): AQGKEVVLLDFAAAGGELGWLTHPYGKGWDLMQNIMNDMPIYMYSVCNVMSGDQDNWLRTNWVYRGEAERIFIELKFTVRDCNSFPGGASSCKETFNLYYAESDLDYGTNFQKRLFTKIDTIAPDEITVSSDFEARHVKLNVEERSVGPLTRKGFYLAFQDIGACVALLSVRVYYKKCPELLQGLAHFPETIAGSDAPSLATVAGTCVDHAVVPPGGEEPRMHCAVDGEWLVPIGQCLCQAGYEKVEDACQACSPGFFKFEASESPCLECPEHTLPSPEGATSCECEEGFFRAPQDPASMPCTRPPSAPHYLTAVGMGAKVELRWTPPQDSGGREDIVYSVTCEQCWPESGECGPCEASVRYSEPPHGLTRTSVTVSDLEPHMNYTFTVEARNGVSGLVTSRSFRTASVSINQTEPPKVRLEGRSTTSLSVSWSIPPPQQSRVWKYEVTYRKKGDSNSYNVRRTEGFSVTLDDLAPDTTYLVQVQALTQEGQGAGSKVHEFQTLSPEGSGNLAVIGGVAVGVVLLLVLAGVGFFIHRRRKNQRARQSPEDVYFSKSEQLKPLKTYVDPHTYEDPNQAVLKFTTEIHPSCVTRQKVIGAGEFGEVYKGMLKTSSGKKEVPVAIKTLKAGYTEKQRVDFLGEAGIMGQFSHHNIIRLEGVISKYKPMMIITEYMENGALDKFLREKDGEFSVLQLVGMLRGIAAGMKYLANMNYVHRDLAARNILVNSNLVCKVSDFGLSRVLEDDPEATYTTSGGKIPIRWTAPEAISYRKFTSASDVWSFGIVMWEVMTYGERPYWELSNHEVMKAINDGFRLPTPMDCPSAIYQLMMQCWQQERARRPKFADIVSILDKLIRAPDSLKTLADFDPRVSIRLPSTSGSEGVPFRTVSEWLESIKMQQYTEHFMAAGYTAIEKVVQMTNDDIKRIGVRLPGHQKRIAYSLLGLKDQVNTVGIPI
row,Binder,"IC50 (M), cytotoxic activity on Lovo cells (WST8, 5 days)"
1,"hu2H11R35R74-PEG4-Mal-DM4 (DAR 6.70) (antibody, V domains shown, DM4 through PEG4-Mal linker on lysine residues, sites not given; average DAR 6.70) VH: QVQLVQSGAEVVKPGASVKISCKASGYTFTAYYMHWVKQSPVQSLEWIGLVNPYNGFSSYNQKFQGKASLTVDRSSSTAYMELHSLTSEDSAVYYCAREFYGYRYFDVWGQGTAVTVSS VL: not shown",7.96e-11 M
2,"hu2H11-PEG4-Mal-DM4 (DAR 6.99) (antibody, V domains shown, DM4 through PEG4-Mal linker on lysine residues, sites not given; average DAR 6.99) VH: QVQLVQSGAEVVKPGASVKISCKASGYTFTAYYMHWVKQSPVQSLEWIGLVNPYNGFSSYNQKFQGKASLTVDKSSSTAYMELHSLTSEDSAVYYCAREFYGYRYFDVWGQGTAVTVSS VL: not shown",1.22e-10 M
3,"hu2H11R35R74-PEG4-Mal-DM4 (DAR 7.00) (antibody, V domains shown, DM4 through PEG4-Mal linker on lysine residues, sites not given; average DAR 7.00) VH: QVQLVQSGAEVVKPGASVKISCKASGYTFTAYYMHWVKQSPVQSLEWIGLVNPYNGFSSYNQKFQGKASLTVDRSSSTAYMELHSLTSEDSAVYYCAREFYGYRYFDVWGQGTAVTVSS VL: not shown",1.16e-11 M

# Molecular target: T1, EphA2 receptor on tumor cells
# Assay: cell-based or functional assay
# Remark: another data set of the same source
"MDA-MB231 + naked 2H11 (1 uM) IC50 (nM), 14C thymidine uptake","MDA-MB231 IC50 (nM), 14C thymidine uptake",Ratio of IC50s (with naked 2H11 / alone) on MDA-MB231,Binder
8.1 nM,1.1 nM,7,"hu2H11-SPDB-DM4 (DAR 3.93) (antibody, V domains shown, DM4 through SPDB linker on lysine residues, sites not given; average DAR 3.93) VH: QVQLVQSGAEVVKPGASVKISCKASGYTFTAYYMHWVKQSPVQSLEWIGLVNPYNGFSSYNQKFQGKASLTVDKSSSTAYMELHSLTSEDSAVYYCAREFYGYRYFDVWGQGTAVTVSS VL: not shown"
80.8 nM,0.06 nM,1350,"hu2H11R35R74-PEG4-NHAc-DM4 (DAR 5.5) (antibody, V domains shown, DM4 through PEG4-NHAc linker on lysine residues, sites not given; average DAR 5.5) VH: QVQLVQSGAEVVKPGASVKISCKASGYTFTAYYMHWVKQSPVQSLEWIGLVNPYNGFSSYNQKFQGKASLTVDRSSSTAYMELHSLTSEDSAVYYCAREFYGYRYFDVWGQGTAVTVSS VL: not shown"
27.4 nM,0.2 nM,114,"hu2H11-PEG4-NHAc-DM4 (DAR 5.3) (antibody, V domains shown, DM4 through PEG4-NHAc linker on lysine residues, sites not given; average DAR 5.3) VH: QVQLVQSGAEVVKPGASVKISCKASGYTFTAYYMHWVKQSPVQSLEWIGLVNPYNGFSSYNQKFQGKASLTVDKSSSTAYMELHSLTSEDSAVYYCAREFYGYRYFDVWGQGTAVTVSS VL: not shown"
11.5 nM,1.2 nM,9,"hu2H11R35R74-SPDB-DM4 (DAR 3.97) (antibody, V domains shown, DM4 through SPDB linker on lysine residues, sites not given; average DAR 3.97) VH: QVQLVQSGAEVVKPGASVKISCKASGYTFTAYYMHWVKQSPVQSLEWIGLVNPYNGFSSYNQKFQGKASLTVDRSSSTAYMELHSLTSEDSAVYYCAREFYGYRYFDVWGQGTAVTVSS VL: not shown"
25.1 nM,0.1 nM,228,"hu2H11R35R74-PEG4-Mal-DM4 (DAR 6.1) (antibody, V domains shown, DM4 through PEG4-Mal linker on lysine residues, sites not given; average DAR 6.1) VH: QVQLVQSGAEVVKPGASVKISCKASGYTFTAYYMHWVKQSPVQSLEWIGLVNPYNGFSSYNQKFQGKASLTVDRSSSTAYMELHSLTSEDSAVYYCAREFYGYRYFDVWGQGTAVTVSS VL: not shown"

# Molecular target: T1, EphA2 receptor on tumor cells
# Assay: cell-based or functional assay
# Remark: another data set of the same source
"IC50 (pM), + naked hu2H11R35R74 (1 uM), MDA MB231 cells","IC50 (pM), ADC alone, MDA MB231 cells, 14C thymidine uptake",ratio of IC50s (+ naked hu2H11R35R74 / ADC alone),Binder
25000 pM,400 pM,62,"hu2H11-R35R74-PEG8-AcNH-DM4 (DAR 4.9) (antibody, V domains shown, DM4 through PEG8-AcNH linker on lysine residues, sites not given; average DAR 4.9) VH: QVQLVQSGAEVVKPGASVKISCKASGYTFTAYYMHWVKQSPVQSLEWIGLVNPYNGFSSYNQKFQGKASLTVDRSSSTAYMELHSLTSEDSAVYYCAREFYGYRYFDVWGQGTAVTVSS VL: not shown"
36400 pM,217 pM,168,"hu2H11-R35R74-PEG4-AcNMe-DM4 (DAR 5.4) (antibody, V domains shown, DM4 through PEG4-AcNMe linker on lysine residues, sites not given; average DAR 5.4) VH: QVQLVQSGAEVVKPGASVKISCKASGYTFTAYYMHWVKQSPVQSLEWIGLVNPYNGFSSYNQKFQGKASLTVDRSSSTAYMELHSLTSEDSAVYYCAREFYGYRYFDVWGQGTAVTVSS VL: not shown"
7820 pM,161 pM,49,"hu2H11-R35R74-PEG4-Allyl-DM4 (DAR 5.3) (antibody, V domains shown, DM4 through PEG4-Allyl linker on lysine residues, sites not given; average DAR 5.3) VH: QVQLVQSGAEVVKPGASVKISCKASGYTFTAYYMHWVKQSPVQSLEWIGLVNPYNGFSSYNQKFQGKASLTVDRSSSTAYMELHSLTSEDSAVYYCAREFYGYRYFDVWGQGTAVTVSS VL: not shown"
29700 pM,147 pM,202,"hu2H11-R35R74-PEG4-AcNH-DM4 (DAR 5.9) (antibody, V domains shown, DM4 through PEG4-AcNH linker on lysine residues, sites not given; average DAR 5.9) VH: QVQLVQSGAEVVKPGASVKISCKASGYTFTAYYMHWVKQSPVQSLEWIGLVNPYNGFSSYNQKFQGKASLTVDRSSSTAYMELHSLTSEDSAVYYCAREFYGYRYFDVWGQGTAVTVSS VL: not shown"
19500 pM,185 pM,105,"hu2H11-R35R74-Acetyl-DM4 (DAR 6.5) (antibody, V domains shown, DM4 through Acetyl linker, sites not given; average DAR 6.5) VH: QVQLVQSGAEVVKPGASVKISCKASGYTFTAYYMHWVKQSPVQSLEWIGLVNPYNGFSSYNQKFQGKASLTVDRSSSTAYMELHSLTSEDSAVYYCAREFYGYRYFDVWGQGTAVTVSS VL: not shown"

# Molecular target: T2, huEphA2-mFc (human, UniProt P29317 24-534, limits assumed)
# T2 construct: Immobilised antigen of the Biacore experiment; also called EphA2-Fc; extra-cellular domain of EphA2 receptor-Fc; not shown: mouse Fc (mFc)
# Assay: SPR, Biacore 3000; EphA2-Fc amine-coupled on C1 chip, IgG in flow, 25 C, 1:1 Langmuir fit
# Protocol: pH=4.5) was coupled to the matrix of a C1 sensor chip (GE healthcare BR-1005-40) at 10 μl/min using a standard amine coupling protocol with EDC (N-ethyl-N′-[dimethyl-aminopropyl]carbodiimide)/NHS (N-hydroxysuccinimide). The density was controlled at an increased response level of ˜100 response units (RU) in kinetic binding experiments. IgGs were diluted in 0.01 M Hepes, pH 7.4 containing 0.15 M NaCl, 3 mM EDTA, and 0.005% P20. All subsequent dilutions were made in the same buffer. All binding experiments were performed at 25° C. with IgG concentrations typically ranging from 50 to 0.2 nM at a flow rate of 50 μl/min.
# Data were collected for approximately 12 min (2 min association time and 10 min dissociation time) and 1 min pulse at 30 μl/min of 1M NaCl, 50 mM NaOH was used to regenerate the surfaces. IgGs were also flowed over an uncoated cell and the sensorgrams from the blank runs were substracted from those obtained with EphA2-Fc coupled chips. Data were fitted to a 1:1 Langmuir binding model with drifting baseline. This algorithm calculates both the kₒₙ and the koff, from which the apparent equilibrium dissociation constant KD, is deduced as the ratio of the two rate constants (koff/kₒₙ).
# The affinity constant was first measured with both naked hu2H11 and hu2H11R35R74.
# T2 sequence (P29317 24-534 limits assumed): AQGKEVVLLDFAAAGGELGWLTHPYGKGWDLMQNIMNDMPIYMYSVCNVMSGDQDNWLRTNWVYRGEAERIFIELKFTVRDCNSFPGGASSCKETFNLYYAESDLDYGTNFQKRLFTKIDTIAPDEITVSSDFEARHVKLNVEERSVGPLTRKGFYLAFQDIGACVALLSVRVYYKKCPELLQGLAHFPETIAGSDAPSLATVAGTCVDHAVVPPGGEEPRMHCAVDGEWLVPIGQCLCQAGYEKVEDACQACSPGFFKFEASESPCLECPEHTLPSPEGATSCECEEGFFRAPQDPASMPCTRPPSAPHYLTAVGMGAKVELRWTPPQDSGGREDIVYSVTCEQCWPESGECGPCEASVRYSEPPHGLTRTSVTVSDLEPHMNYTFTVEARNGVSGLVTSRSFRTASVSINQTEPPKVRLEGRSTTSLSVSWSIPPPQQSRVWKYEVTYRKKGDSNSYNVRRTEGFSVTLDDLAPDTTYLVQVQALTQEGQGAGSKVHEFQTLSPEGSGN
Ka,Kd,Ratio (KD against naked hu2H11),koff,kon,Binder
4.59e+09 M⁻¹,0.218 nM,0.7 fold,0.00115 s⁻¹,5.25e+06 M⁻¹ s⁻¹,"hu2H11R35R74 (antibody, V domains shown, only the variable domains are tied by name to humanized 2H11R35R74; also called humanized 2H11R35R74; naked hu2H11R35R74) VH: QVQLVQSGAEVVKPGASVKISCKASGYTFTAYYMHWVKQSPVQSLEWIGLVNPYNGFSSYNQKFQGKASLTVDRSSSTAYMELHSLTSEDSAVYYCAREFYGYRYFDVWGQGTAVTVSS VL: not shown"
3.64e+09 M⁻¹,0.275 nM,0.9 fold,0.00123 s⁻¹,4.47e+06 M⁻¹ s⁻¹,"hu2H11R35R74-PEG4-NHAc-DM4 (D/A 7.4) (antibody, V domains shown, DM4 through PEG4-NHAc linker on lysine residues, sites not given; average D/A 7.4 per antibody, Antibody-drug conjugate of hu2H11R35R74; constant regions as for m2) VH: QVQLVQSGAEVVKPGASVKISCKASGYTFTAYYMHWVKQSPVQSLEWIGLVNPYNGFSSYNQKFQGKASLTVDRSSSTAYMELHSLTSEDSAVYYCAREFYGYRYFDVWGQGTAVTVSS VL: not shown"
3.76e+09 M⁻¹,0.266 nM,0.9 fold,0.00111 s⁻¹,4.15e+06 M⁻¹ s⁻¹,"hu2H11R35R74-PEG4-NHAc-DM4 (D/A 8.4) (antibody, V domains shown, DM4 through PEG4-NHAc linker on lysine residues, sites not given; average D/A 8.4 per antibody, Antibody-drug conjugate of hu2H11R35R74; constant regions as for m2) VH: QVQLVQSGAEVVKPGASVKISCKASGYTFTAYYMHWVKQSPVQSLEWIGLVNPYNGFSSYNQKFQGKASLTVDRSSSTAYMELHSLTSEDSAVYYCAREFYGYRYFDVWGQGTAVTVSS VL: not shown"
3.8e+09 M⁻¹,0.263 nM,0.9 fold,0.00115 s⁻¹,4.35e+06 M⁻¹ s⁻¹,"hu2H11R35R74-PEG4-NHAc-DM4 (D/A 5.6) (antibody, V domains shown, DM4 through PEG4-NHAc linker on lysine residues, sites not given; average D/A 5.6 per antibody, Antibody-drug conjugate of hu2H11R35R74; constant regions as for m2) VH: QVQLVQSGAEVVKPGASVKISCKASGYTFTAYYMHWVKQSPVQSLEWIGLVNPYNGFSSYNQKFQGKASLTVDRSSSTAYMELHSLTSEDSAVYYCAREFYGYRYFDVWGQGTAVTVSS VL: not shown"
2.38e+09 M⁻¹,0.421 nM,1.4 fold,0.00129 s⁻¹,3.08e+06 M⁻¹ s⁻¹,"hu2H11R35R74-PEG4-NHAc-DM4 (D/A 9.3) (antibody, V domains shown, DM4 through PEG4-NHAc linker on lysine residues, sites not given; average D/A 9.3 per antibody, Antibody-drug conjugate of hu2H11R35R74; constant regions as for m2) VH: QVQLVQSGAEVVKPGASVKISCKASGYTFTAYYMHWVKQSPVQSLEWIGLVNPYNGFSSYNQKFQGKASLTVDRSSSTAYMELHSLTSEDSAVYYCAREFYGYRYFDVWGQGTAVTVSS VL: not shown"
3.55e+09 M⁻¹,0.282 nM,0.9 fold,0.00119 s⁻¹,4.21e+06 M⁻¹ s⁻¹,"hu2H11R35R74-PEG4-NHAc-DM4 (D/A 6.3) (antibody, V domains shown, DM4 through PEG4-NHAc linker on lysine residues, sites not given; average D/A 6.3 per antibody, Antibody-drug conjugate of hu2H11R35R74; constant regions as for m2) VH: QVQLVQSGAEVVKPGASVKISCKASGYTFTAYYMHWVKQSPVQSLEWIGLVNPYNGFSSYNQKFQGKASLTVDRSSSTAYMELHSLTSEDSAVYYCAREFYGYRYFDVWGQGTAVTVSS VL: not shown"
6.16e+08 M⁻¹,1.62 nM,5.4 fold,0.00242 s⁻¹,1.49e+06 M⁻¹ s⁻¹,"hu2H11-PEG4-NHAc-DM4 (D/A 7.5) (antibody, V domains shown, DM4 through PEG4-NHAc linker on surface lysine residues, sites not given; average D/A 7.5 per antibody, Antibody-drug conjugate of hu2H11; also called conjugated hu2H11) VH: QVQLVQSGAEVVKPGASVKISCKASGYTFTAYYMHWVKQSPVQSLEWIGLVNPYNGFSSYNQKFQGKASLTVDKSSSTAYMELHSLTSEDSAVYYCAREFYGYRYFDVWGQGTAVTVSS VL: not shown"
3.39e+09 M⁻¹,0.298 nM,1 fold,0.0011 s⁻¹,3.71e+06 M⁻¹ s⁻¹,"hu2H11 (antibody, V domains shown, Humanized IgG made in CHO cells; also called hu53.2H11; humanized 53.2H11) VH: QVQLVQSGAEVVKPGASVKISCKASGYTFTAYYMHWVKQSPVQSLEWIGLVNPYNGFSSYNQKFQGKASLTVDKSSSTAYMELHSLTSEDSAVYYCAREFYGYRYFDVWGQGTAVTVSS VL: not shown"
